Key:
[1] = target: T1, human tissue factor pathway inhibitor (TFPI) (human, UniProt P10646 29-304, limits assumed); test: competitive ELISA
T1 construct: bought; also called hTFPI; human TFPI
T1 sequence (looked up): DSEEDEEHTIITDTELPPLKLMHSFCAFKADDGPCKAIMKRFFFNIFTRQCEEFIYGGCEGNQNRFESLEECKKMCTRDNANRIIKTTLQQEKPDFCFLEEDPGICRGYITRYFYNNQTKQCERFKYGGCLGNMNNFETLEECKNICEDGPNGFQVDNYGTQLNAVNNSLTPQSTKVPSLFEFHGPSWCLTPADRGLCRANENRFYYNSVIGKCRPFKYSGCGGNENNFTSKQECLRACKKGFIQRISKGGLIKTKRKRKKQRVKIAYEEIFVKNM

[2] = target: T2, mouse tissue factor pathway inhibitor (TFPI) (mouse, UniProt O54819 29-289, limits assumed); test: competitive ELISA
T2 construct: bought; also called mTFPI; murine TFPI
T2 sequence (looked up): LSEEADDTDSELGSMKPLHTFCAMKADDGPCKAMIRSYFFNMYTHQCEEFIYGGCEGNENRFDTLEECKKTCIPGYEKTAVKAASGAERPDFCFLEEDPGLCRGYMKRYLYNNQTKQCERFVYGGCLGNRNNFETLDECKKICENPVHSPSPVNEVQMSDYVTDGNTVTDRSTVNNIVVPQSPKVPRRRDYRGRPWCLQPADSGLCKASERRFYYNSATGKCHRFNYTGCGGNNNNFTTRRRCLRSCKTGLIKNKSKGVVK

Binder | variant/HC_D62R [1] | variant/HC_D62R [2]
4B7 HC N32D+D62R+H107M+Y112D/LC F31I+S32R+N35I+D97T (Fab, V domains shown) VH: QVQLQQSGPGLVKPSQTLSLTCAISGDSVSSDSAAWSWIRQSPGRGLEWLGIIYKRSKWYNRYAVSVKSRITINPDTSKNQFSLQLNSVTPEDTAVYYCARWHSDKMWGFDDWGQGTLVTVSS VL: DIVMTQSPLSLPVTPGEPASISCRSSQSLVIRDGITYLNWYLQKPGQSPQLLIYKGSNRASGVPDRFSGSGSGTDFTLKISRVEAEDVGVYYCQQYTSYPLTFGQGTKVEIKR | 18.2 ratio | 8.7 ratio
4B7 HC N32D+D62R+Y112D/LC F31H+S32R+D33F+N35I+D97T (Fab, V domains shown) VH: QVQLQQSGPGLVKPSQTLSLTCAISGDSVSSDSAAWSWIRQSPGRGLEWLGIIYKRSKWYNRYAVSVKSRITINPDTSKNQFSLQLNSVTPEDTAVYYCARWHSDKHWGFDDWGQGTLVTVSS VL: DIVMTQSPLSLPVTPGEPASISCRSSQSLVHRFGITYLNWYLQKPGQSPQLLIYKGSNRASGVPDRFSGSGSGTDFTLKISRVEAEDVGVYYCQQYTSYPLTFGQGTKVEIKR | 22.1 ratio | 15.2 ratio
4B7 HC N32D+D62R+H107M+Y112D/LC S32R+D33F+N35T (Fab, V domains shown) VH: QVQLQQSGPGLVKPSQTLSLTCAISGDSVSSDSAAWSWIRQSPGRGLEWLGIIYKRSKWYNRYAVSVKSRITINPDTSKNQFSLQLNSVTPEDTAVYYCARWHSDKMWGFDDWGQGTLVTVSS VL: DIVMTQSPLSLPVTPGEPASISCRSSQSLVFRFGTTYLNWYLQKPGQSPQLLIYKGSNRASGVPDRFSGSGSGTDFTLKISRVEAEDVGVYYCQQYDSYPLTFGQGTKVEIKR | 29.2 ratio | 44.1 ratio
4B7 HC N32D+D62R+H107M+Y112D/LC F31M+S32R+D33F+D97T (Fab, V domains shown) VH: QVQLQQSGPGLVKPSQTLSLTCAISGDSVSSDSAAWSWIRQSPGRGLEWLGIIYKRSKWYNRYAVSVKSRITINPDTSKNQFSLQLNSVTPEDTAVYYCARWHSDKMWGFDDWGQGTLVTVSS VL: DIVMTQSPLSLPVTPGEPASISCRSSQSLVMRFGNTYLNWYLQKPGQSPQLLIYKGSNRASGVPDRFSGSGSGTDFTLKISRVEAEDVGVYYCQQYTSYPLTFGQGTKVEIKR | 21.9 ratio | 16.5 ratio
4B7 HC N32D+D62R+H107M+Y112D/LC F31M+D33F+N35I (Fab, V domains shown) VH: QVQLQQSGPGLVKPSQTLSLTCAISGDSVSSDSAAWSWIRQSPGRGLEWLGIIYKRSKWYNRYAVSVKSRITINPDTSKNQFSLQLNSVTPEDTAVYYCARWHSDKMWGFDDWGQGTLVTVSS VL: DIVMTQSPLSLPVTPGEPASISCRSSQSLVMSFGITYLNWYLQKPGQSPQLLIYKGSNRASGVPDRFSGSGSGTDFTLKISRVEAEDVGVYYCQQYDSYPLTFGQGTKVEIKR | 28.4 ratio | 46.8 ratio
4B7 HC N32D+D62R+H107M/LC S32R+D33R+N35I (Fab, V domains shown) VH: QVQLQQSGPGLVKPSQTLSLTCAISGDSVSSDSAAWSWIRQSPGRGLEWLGIIYKRSKWYNRYAVSVKSRITINPDTSKNQFSLQLNSVTPEDTAVYYCARWHSDKMWGFDYWGQGTLVTVSS VL: DIVMTQSPLSLPVTPGEPASISCRSSQSLVFRRGITYLNWYLQKPGQSPQLLIYKGSNRASGVPDRFSGSGSGTDFTLKISRVEAEDVGVYYCQQYDSYPLTFGQGTKVEIKR | 12.9 ratio | 16.1 ratio
4B7 HC N32D+D62R+H107M+Y112D/LC F31M+S32R+D33R (Fab, V domains shown) VH: QVQLQQSGPGLVKPSQTLSLTCAISGDSVSSDSAAWSWIRQSPGRGLEWLGIIYKRSKWYNRYAVSVKSRITINPDTSKNQFSLQLNSVTPEDTAVYYCARWHSDKMWGFDDWGQGTLVTVSS VL: DIVMTQSPLSLPVTPGEPASISCRSSQSLVMRRGNTYLNWYLQKPGQSPQLLIYKGSNRASGVPDRFSGSGSGTDFTLKISRVEAEDVGVYYCQQYDSYPLTFGQGTKVEIKR | 18.6 ratio | 13.9 ratio
4B7 HC N32D+D62R+H107M+Y112D/LC F31M+S32L+D33R+N35I+D97T (Fab, V domains shown) VH: QVQLQQSGPGLVKPSQTLSLTCAISGDSVSSDSAAWSWIRQSPGRGLEWLGIIYKRSKWYNRYAVSVKSRITINPDTSKNQFSLQLNSVTPEDTAVYYCARWHSDKMWGFDDWGQGTLVTVSS VL: DIVMTQSPLSLPVTPGEPASISCRSSQSLVMLRGITYLNWYLQKPGQSPQLLIYKGSNRASGVPDRFSGSGSGTDFTLKISRVEAEDVGVYYCQQYTSYPLTFGQGTKVEIKR | 32.2 ratio | 26.7 ratio
4B7 HC N32D+D62R+Y112D/LC D33F+N35I+D97T (Fab, V domains shown) VH: QVQLQQSGPGLVKPSQTLSLTCAISGDSVSSDSAAWSWIRQSPGRGLEWLGIIYKRSKWYNRYAVSVKSRITINPDTSKNQFSLQLNSVTPEDTAVYYCARWHSDKHWGFDDWGQGTLVTVSS VL: DIVMTQSPLSLPVTPGEPASISCRSSQSLVFSFGITYLNWYLQKPGQSPQLLIYKGSNRASGVPDRFSGSGSGTDFTLKISRVEAEDVGVYYCQQYTSYPLTFGQGTKVEIKR | 25.5 ratio | 15.9 ratio
4B7 HC N32D+D62R+Y112D/LC D33R+N35I (Fab, V domains shown) VH: QVQLQQSGPGLVKPSQTLSLTCAISGDSVSSDSAAWSWIRQSPGRGLEWLGIIYKRSKWYNRYAVSVKSRITINPDTSKNQFSLQLNSVTPEDTAVYYCARWHSDKHWGFDDWGQGTLVTVSS VL: DIVMTQSPLSLPVTPGEPASISCRSSQSLVFSRGITYLNWYLQKPGQSPQLLIYKGSNRASGVPDRFSGSGSGTDFTLKISRVEAEDVGVYYCQQYDSYPLTFGQGTKVEIKR | 22.9 ratio | 19.5 ratio
4B7 HC N32D+D62R+H107M+Y112D/LC F31M+S32R+D33R+N35T (Fab, V domains shown) VH: QVQLQQSGPGLVKPSQTLSLTCAISGDSVSSDSAAWSWIRQSPGRGLEWLGIIYKRSKWYNRYAVSVKSRITINPDTSKNQFSLQLNSVTPEDTAVYYCARWHSDKMWGFDDWGQGTLVTVSS VL: DIVMTQSPLSLPVTPGEPASISCRSSQSLVMRRGTTYLNWYLQKPGQSPQLLIYKGSNRASGVPDRFSGSGSGTDFTLKISRVEAEDVGVYYCQQYDSYPLTFGQGTKVEIKR | 17 ratio | 18.7 ratio
4B7 HC N32D+D62R+H107M+Y112D/LC F31M+D33F+N35T (Fab, V domains shown) VH: QVQLQQSGPGLVKPSQTLSLTCAISGDSVSSDSAAWSWIRQSPGRGLEWLGIIYKRSKWYNRYAVSVKSRITINPDTSKNQFSLQLNSVTPEDTAVYYCARWHSDKMWGFDDWGQGTLVTVSS VL: DIVMTQSPLSLPVTPGEPASISCRSSQSLVMSFGTTYLNWYLQKPGQSPQLLIYKGSNRASGVPDRFSGSGSGTDFTLKISRVEAEDVGVYYCQQYDSYPLTFGQGTKVEIKR | 29.9 ratio | 34.3 ratio
4B7 HC N32D+D62R+H107M+Y112D/LC S32R+N35T (Fab, V domains shown) VH: QVQLQQSGPGLVKPSQTLSLTCAISGDSVSSDSAAWSWIRQSPGRGLEWLGIIYKRSKWYNRYAVSVKSRITINPDTSKNQFSLQLNSVTPEDTAVYYCARWHSDKMWGFDDWGQGTLVTVSS VL: DIVMTQSPLSLPVTPGEPASISCRSSQSLVFRDGTTYLNWYLQKPGQSPQLLIYKGSNRASGVPDRFSGSGSGTDFTLKISRVEAEDVGVYYCQQYDSYPLTFGQGTKVEIKR | 25.3 ratio | 29.3 ratio
4B7 HC N32D+D62R+H107M+Y112D/LC F31M+S32R+D33F+N35I (Fab, V domains shown) VH: QVQLQQSGPGLVKPSQTLSLTCAISGDSVSSDSAAWSWIRQSPGRGLEWLGIIYKRSKWYNRYAVSVKSRITINPDTSKNQFSLQLNSVTPEDTAVYYCARWHSDKMWGFDDWGQGTLVTVSS VL: DIVMTQSPLSLPVTPGEPASISCRSSQSLVMRFGITYLNWYLQKPGQSPQLLIYKGSNRASGVPDRFSGSGSGTDFTLKISRVEAEDVGVYYCQQYDSYPLTFGQGTKVEIKR | 27 ratio | 32.3 ratio
4B7 HC N32D+D62R+H107M+Y112D/LC F31M+D33R (Fab, V domains shown) VH: QVQLQQSGPGLVKPSQTLSLTCAISGDSVSSDSAAWSWIRQSPGRGLEWLGIIYKRSKWYNRYAVSVKSRITINPDTSKNQFSLQLNSVTPEDTAVYYCARWHSDKMWGFDDWGQGTLVTVSS VL: DIVMTQSPLSLPVTPGEPASISCRSSQSLVMSRGNTYLNWYLQKPGQSPQLLIYKGSNRASGVPDRFSGSGSGTDFTLKISRVEAEDVGVYYCQQYDSYPLTFGQGTKVEIKR | 26.9 ratio | 24.6 ratio
4B7 HC N32D+D62R+H107M+Y112D/LC S32R+N35T+D97T (Fab, V domains shown) VH: QVQLQQSGPGLVKPSQTLSLTCAISGDSVSSDSAAWSWIRQSPGRGLEWLGIIYKRSKWYNRYAVSVKSRITINPDTSKNQFSLQLNSVTPEDTAVYYCARWHSDKMWGFDDWGQGTLVTVSS VL: DIVMTQSPLSLPVTPGEPASISCRSSQSLVFRDGTTYLNWYLQKPGQSPQLLIYKGSNRASGVPDRFSGSGSGTDFTLKISRVEAEDVGVYYCQQYTSYPLTFGQGTKVEIKR | 27.7 ratio | 15.8 ratio
4B7 HC N32D+D62R+H107M+Y112D/LC F31M+S32R+D33R+N35I+D97T (Fab, V domains shown) VH: QVQLQQSGPGLVKPSQTLSLTCAISGDSVSSDSAAWSWIRQSPGRGLEWLGIIYKRSKWYNRYAVSVKSRITINPDTSKNQFSLQLNSVTPEDTAVYYCARWHSDKMWGFDDWGQGTLVTVSS VL: DIVMTQSPLSLPVTPGEPASISCRSSQSLVMRRGITYLNWYLQKPGQSPQLLIYKGSNRASGVPDRFSGSGSGTDFTLKISRVEAEDVGVYYCQQYTSYPLTFGQGTKVEIKR | 16.9 ratio | 9.6 ratio
4B7 HC N32D+D62R+H107M+Y112D/LC F31M+D33R+N35I (Fab, V domains shown) VH: QVQLQQSGPGLVKPSQTLSLTCAISGDSVSSDSAAWSWIRQSPGRGLEWLGIIYKRSKWYNRYAVSVKSRITINPDTSKNQFSLQLNSVTPEDTAVYYCARWHSDKMWGFDDWGQGTLVTVSS VL: DIVMTQSPLSLPVTPGEPASISCRSSQSLVMSRGITYLNWYLQKPGQSPQLLIYKGSNRASGVPDRFSGSGSGTDFTLKISRVEAEDVGVYYCQQYDSYPLTFGQGTKVEIKR | 21.3 ratio | 23 ratio

Source: patent publication USRE47150 (Bayer, dated 2018)
